Results as given in PMC3214626.

Biological target: Slc1-FLAG (SycE-like chaperone 1; CT043) (Chlamydia trachomatis)
Assay: SEC

Substance: Slc1-FLAG (SycE-like chaperone 1; CT043) (natural protein)
- stoichiometry N: 2
